Measured values reported in the supplement of paper PMC7125110.
± gives the standard error. Fewer inactive variants are shown than the library holds.

B1: glmS ribozyme (parent)
chain: AUAAAAGCGCCAGAACUACAGAAAUGUAGUUGACGAGGAGGAGGUUUAUCGAAUUUUCGGCGGAUGCCUCCAAA

Legend:
Conditions in all cases: with glucosamine-6-phosphate
glucosamine-6-phosphate [1] = variants of: B1; test: self-cleavage kobs at 160 uM GlcN6P; higher = faster cleavage; RNA array
Procedure, shortened: (§1)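 Tracking of barcoded ribozyme variants used a hybridised Cy3 probe at 37 °C, after in situ transcription by E. coli RNA polymerase on sequenced MiSeq chips. The flowed solution held 40 μM to 10 mM glucosamine-6-phosphate in HEPES/KCl/Mg(OAc)2 buffer, and imaging ran over ~14 h. kobs was taken from exponential decay fits of normalised per-tile medians, and kcat and KM from weighted Michaelis–Menten fits.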

glucosamine-6-phosphate [2] = variants of: B1; test: self-cleavage kobs at 640 uM GlcN6P; higher = faster cleavage; RNA array
Procedure, shortened: as §1

glucosamine-6-phosphate [3] = variants of: B1; test: self-cleavage kobs at 2500 uM GlcN6P; higher = faster cleavage; RNA array
Procedure, shortened: as §1

glucosamine-6-phosphate [4] = variants of: B1; test: self-cleavage kobs at 10000 uM GlcN6P; higher = faster cleavage; RNA array
Procedure, shortened: as §1

Variant | self-cleavage kobs at 160 uM GlcN6P (glucosamine-6-phosphate [1]) [s⁻¹] | self-cleavage kobs at 640 uM GlcN6P (glucosamine-6-phosphate [2]) [s⁻¹] | self-cleavage kobs at 2500 uM GlcN6P (glucosamine-6-phosphate [3]) [s⁻¹] | self-cleavage kobs at 10000 uM GlcN6P (glucosamine-6-phosphate [4]) [s⁻¹]
G13U G35C A64U | < 1e-05 | < 1e-05 | < 1e-05 | –
A12G G35U A53U | < 1e-05 | – | – | < 1e-05
G9C U45A U47C C68G | < 1e-05 | < 1e-05 | < 1e-05 | –
G13A G43C G66A | < 1e-05 | – | < 1e-05 | < 1e-05
G9C U46G C67G | < 1e-05 | – | – | –
C11A A42C | < 1e-05 | < 1e-05 | < 1e-05 | –
A12G G51A | < 1e-05 | < 1e-05 | – | < 1e-05
A12U A15C A42G | 0.00123 ± 0.0005 | 0.00381 ± 0.0017 | 0.0282 ± 0.014 | –
C10A G32C G51U | < 1e-05 | – | – | –
G13A G41U G43C | < 1e-05 | < 1e-05 | – | –
C10U A20G U55C | < 1e-05 | – | – | –
G13C A14C U55G G59U | < 1e-05 | < 1e-05 | – | –
A14C C16G G38A A48G U49A | < 1e-05 | – | – | –
C10A G38A G41U G44A G59U | < 1e-05 | < 1e-05 | < 1e-05 | –
A12G A14U A15U | 4.38e-05 ± 2.1e-05 | – | – | –
G9A A36C G41U A64G C70U | < 1e-05 | < 1e-05 | < 1e-05 | < 1e-05
C8U A39U U46C U56C G59U | < 1e-05 | < 1e-05 | < 1e-05 | –
C10U A33G G51A A64C | < 1e-05 | – | – | –
C10A U55A C67G | 6.55e-05 ± 3e-05 | 0.000418 ± 0.00019 | – | –
A14C A48U G60U | < 1e-05 | < 1e-05 | – | –
A14C U47A C58G C67G U69C | 7.17e-05 ± 3.1e-05 | 9.78e-05 ± 3.1e-05 | – | –
G13C A14C G51A G66U | < 1e-05 | – | < 1e-05 | –
C11A A36U U56A C68G C70A | 6.51e-05 ± 2.8e-05 | 0.000823 ± 0.0003 | – | 4.16e-05 ± 1.8e-05
A12C G40C C61G | < 1e-05 | < 1e-05 | < 1e-05 | < 1e-05
C10G G41C G63U | < 1e-05 | < 1e-05 | – | –

Variant | self-cleavage kobs at 160 uM GlcN6P (glucosamine-6-phosphate [1]) [s⁻¹] | self-cleavage kobs at 640 uM GlcN6P (glucosamine-6-phosphate [2]) [s⁻¹] | self-cleavage kobs at 2500 uM GlcN6P (glucosamine-6-phosphate [3]) [s⁻¹] | self-cleavage kobs at 10000 uM GlcN6P (glucosamine-6-phosphate [4]) [s⁻¹]
G9C A48G | < 1e-05 | < 1e-05 | < 1e-05 | < 1e-05
G13A G43A | < 1e-05 | < 1e-05 | – | < 1e-05
C8U U56A | < 1e-05 | < 1e-05 | < 1e-05 | –
A12U G51A U55C | < 1e-05 | – | – | –
C8U G41U C58U C68A C70G | < 1e-05 | – | – | –
G9U G41C U47G | < 1e-05 | < 1e-05 | < 1e-05 | –
G13U A14U U57C | < 1e-05 | – | < 1e-05 | –
G9U A33U A53G G66U | < 1e-05 | – | – | –
C11A A14C U31G U65G | < 1e-05 | – | – | 2.62e-05 ± 1.2e-05
A14C G29U C50U A52G C58G | 0.000474 ± 0.00018 | – | 7.98e-05 ± 3.9e-05 | –
G9C U56G A64C | < 1e-05 | < 1e-05 | < 1e-05 | –
C10U A12G G35C | < 1e-05 | – | – | –
C10G G29A G62U C71U | < 1e-05 | < 1e-05 | < 1e-05 | –
C11G U47A | < 1e-05 | < 1e-05 | – | < 1e-05
C11G A14C U31G A33U | < 1e-05 | < 1e-05 | < 1e-05 | –
C11A G13U U47G A52C A53C | < 1e-05 | – | – | –
C10A U31G A42U | < 1e-05 | < 1e-05 | < 1e-05 | –
C10U C16A U65A | < 1e-05 | < 1e-05 | < 1e-05 | < 1e-05
C8U G32A | < 1e-05 | – | < 1e-05 | < 1e-05
C11U G51U A53G | < 1e-05 | – | – | –
C8U G66U | < 1e-05 | < 1e-05 | – | < 1e-05
C8U G66C | < 1e-05 | < 1e-05 | < 1e-05 | < 1e-05
C10U U65G | < 1e-05 | – | – | –
G9A C10U G13A A52C | < 1e-05 | < 1e-05 | < 1e-05 | –
G13C A36G G63C | < 1e-05 | < 1e-05 | – | –

Variant | self-cleavage kobs at 160 uM GlcN6P (glucosamine-6-phosphate [1]) [s⁻¹] | self-cleavage kobs at 640 uM GlcN6P (glucosamine-6-phosphate [2]) [s⁻¹] | self-cleavage kobs at 2500 uM GlcN6P (glucosamine-6-phosphate [3]) [s⁻¹] | self-cleavage kobs at 10000 uM GlcN6P (glucosamine-6-phosphate [4]) [s⁻¹]
A12U C34A | < 1e-05 | < 1e-05 | – | –
C10U C11G A33U | < 1e-05 | < 1e-05 | < 1e-05 | < 1e-05
C11U C61A G63C | < 1e-05 | < 1e-05 | – | –
G9U C67A | < 1e-05 | < 1e-05 | < 1e-05 | < 1e-05
G9A A12G A14G G35U | < 1e-05 | – | < 1e-05 | –
C11G A33C G35C G62A | < 1e-05 | < 1e-05 | – | –
G9U A14G U54A U56C G59A G63A U65G | < 1e-05 | < 1e-05 | – | –
C10U A12U G44A U49C C70G | < 1e-05 | < 1e-05 | < 1e-05 | –
C10A C16U G41A A42C | < 1e-05 | < 1e-05 | < 1e-05 | < 1e-05
G9C G51U | < 1e-05 | < 1e-05 | – | < 1e-05
A12G G38U U57C | < 1e-05 | < 1e-05 | – | < 1e-05
G13C C34A G35U | < 1e-05 | < 1e-05 | < 1e-05 | –
A12U U47C U65C | < 1e-05 | – | – | –
G13A C58A | 5.76e-05 ± 2.1e-05 | 0.000121 ± 2.5e-05 | 0.000307 ± 7.3e-05 | –
A12G U49A G63U | < 1e-05 | < 1e-05 | – | –
C10U G13C | < 1e-05 | – | – | < 1e-05
C8U G29U G41A G44C | < 1e-05 | – | – | –
A12U G13U A48U G51C U54G C71U | < 1e-05 | < 1e-05 | < 1e-05 | –
C10U A39U A64U C70G | < 1e-05 | < 1e-05 | – | –
A14G A33G G60U | < 1e-05 | < 1e-05 | < 1e-05 | –
A12G C34A A36G | < 1e-05 | – | < 1e-05 | –
C8U A42U A64C U69C | < 1e-05 | < 1e-05 | – | –
C8U G32A U45A U56C | < 1e-05 | < 1e-05 | < 1e-05 | < 1e-05
C10G U65C | < 1e-05 | < 1e-05 | < 1e-05 | < 1e-05
A12U A15G C16U U31G C71U | 0.000195 ± 6.7e-05 | 0.000442 ± 0.00015 | 0.000331 ± 0.0001 | –

Variant | self-cleavage kobs at 160 uM GlcN6P (glucosamine-6-phosphate [1]) [s⁻¹] | self-cleavage kobs at 640 uM GlcN6P (glucosamine-6-phosphate [2]) [s⁻¹] | self-cleavage kobs at 2500 uM GlcN6P (glucosamine-6-phosphate [3]) [s⁻¹] | self-cleavage kobs at 10000 uM GlcN6P (glucosamine-6-phosphate [4]) [s⁻¹]
G9U G32C G35C A64G | < 1e-05 | < 1e-05 | < 1e-05 | –
G9U G43A G66U | < 1e-05 | – | < 1e-05 | –
G9C A36C | < 1e-05 | < 1e-05 | < 1e-05 | < 1e-05
C10U A12C U31G A42G | < 1e-05 | – | – | –
C10U G40C G44U | < 1e-05 | – | < 1e-05 | < 1e-05
G9A U49A | < 1e-05 | < 1e-05 | < 1e-05 | –
C10G U45C | < 1e-05 | – | < 1e-05 | –
C11A A42G A53C | < 1e-05 | – | – | –
C10U A33C G59A G66U | < 1e-05 | < 1e-05 | – | –
G13U G35C G51C U54A C70U | < 1e-05 | – | < 1e-05 | –
A14G A36C G44C G51A G62A | < 1e-05 | – | – | –
C8U C61G | < 1e-05 | < 1e-05 | < 1e-05 | < 1e-05
C11A A39C U49C | < 1e-05 | – | < 1e-05 | –
C11A A39C C70G | < 1e-05 | < 1e-05 | < 1e-05 | –
A14C C16A U31C G35C U55G | < 1e-05 | – | < 1e-05 | < 1e-05
G9C A12C U31C | < 1e-05 | < 1e-05 | < 1e-05 | –
C8U G35C C70G | < 1e-05 | – | – | –
A12G G40U G62A | < 1e-05 | – | – | –
C11U U56G | 4.58e-05 ± 1.6e-05 | 0.000297 ± 5.6e-05 | 0.000254 ± 9.7e-05 | 0.00158 ± 0.00036
A12G A36C U65A | < 1e-05 | < 1e-05 | < 1e-05 | < 1e-05
A12C U31G A42C U69G | 0.000164 ± 3.1e-05 | – | 0.00194 ± 0.00028 | –
G9A G29U A36C | < 1e-05 | < 1e-05 | < 1e-05 | –
G13U U47G A52C | < 1e-05 | – | < 1e-05 | –
A12C G63U | < 1e-05 | < 1e-05 | – | < 1e-05
C11U G32U A42U | < 1e-05 | – | < 1e-05 | –
